From US20250145724A1 (TWIST BIOSCIENCE, published 2025)
Numbering of substitutions follows the chain as printed. In names and notes the source's numbering stands.

Columns and labels:
hA2b receptor [1] = target: T1, hA2b receptor (human, UniProt P29275 1-332); test: cell binding on hA2b HEK293T cells, one bar per antibody; the y axis has no label or unit and the antibody concentration is not given
T1 construct: whole, on cells; also called adenosine A2B receptor
T1 sequence (looked up): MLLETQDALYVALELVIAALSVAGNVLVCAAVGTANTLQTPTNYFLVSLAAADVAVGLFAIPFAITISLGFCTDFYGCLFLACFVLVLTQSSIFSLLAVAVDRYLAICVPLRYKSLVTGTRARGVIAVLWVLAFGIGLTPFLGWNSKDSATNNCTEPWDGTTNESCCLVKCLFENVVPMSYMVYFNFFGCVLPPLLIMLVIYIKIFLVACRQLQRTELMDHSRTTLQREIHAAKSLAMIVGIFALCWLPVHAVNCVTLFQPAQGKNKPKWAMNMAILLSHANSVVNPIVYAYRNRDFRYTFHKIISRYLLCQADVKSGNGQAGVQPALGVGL

[2] = target: T2, Adenosine A2A receptor (human) (human, UniProt P29274 1-412); test: flow cytometry titration 0.05-100 nM IgG, MFI; grey curve and grey number taken as HEK293-A2a cells, black (ND) as parent cells, no legend on the sheet
T2 construct: also called hA2a; hA2a receptor
Method: (§1) Flow cytometry data showing binding to HEK293-A2a cells using immunoglobulins from variant libraries were generated using 100 nM IgG and compared to detected binding in parent cells. […] Selected variants were assessed for binding at concentrations titrated from 100 nM. […] Binding curves are plotted with IgG concentration vs. MFI (mean fluorescence intensity). […] Selected variants were assessed for binding at concentrations titrated from 100 nM. […] Binding curves are plotted with IgG concentration vs. MFI (mean fluorescence intensity).

[3] = target: T2, Adenosine A2A receptor (human); test: cell binding titration from 100 nM, RL1-H MFI; panel 'Mouse Immune Library to A2a protein'
Method: (§2) Purified A2a immunoglobulins from Tables 15-18 were assayed for binding in a titration from 100 nM.

[4] = target: T2, Adenosine A2A receptor (human); test: cell binding titration from 100 nM, RL1-H MFI; panel 'Immune Library to A2a protein + ZM241385'
Method: as §2

[5] = target: T2, Adenosine A2A receptor (human); test: cell-based or functional assay
[6] = target: T2, Adenosine A2A receptor (human); test: cell-based or functional assay; remark: listed apart in the source
[7] = target: T2, Adenosine A2A receptor (human); test: flow cytometry titration of IgG from 100 nM on hA2a (RL1-H MFI against IgG in nM); EC50 from the table drawn beside the curves
hA1 receptor = target: T3, hA1 receptor (human, UniProt P30542 1-326); test: In vitro specificity, flow cytometry MFI at 100 nM IgG on hA1
T3 construct: whole, on cells
T3 sequence (looked up): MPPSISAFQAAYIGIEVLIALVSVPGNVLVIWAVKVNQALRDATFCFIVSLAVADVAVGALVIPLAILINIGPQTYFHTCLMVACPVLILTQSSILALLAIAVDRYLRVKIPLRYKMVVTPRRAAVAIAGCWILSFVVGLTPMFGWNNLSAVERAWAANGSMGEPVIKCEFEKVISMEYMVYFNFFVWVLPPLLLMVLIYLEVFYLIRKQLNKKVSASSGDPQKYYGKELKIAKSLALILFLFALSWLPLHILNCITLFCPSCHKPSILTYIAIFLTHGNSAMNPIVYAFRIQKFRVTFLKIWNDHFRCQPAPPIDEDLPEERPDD

hA3 receptor = target: T4, hA3 receptor (human, UniProt P0DMS8 1-318); test: In vitro specificity, flow cytometry MFI at 100 nM IgG on hA3
T4 construct: whole, on cells
T4 sequence (looked up): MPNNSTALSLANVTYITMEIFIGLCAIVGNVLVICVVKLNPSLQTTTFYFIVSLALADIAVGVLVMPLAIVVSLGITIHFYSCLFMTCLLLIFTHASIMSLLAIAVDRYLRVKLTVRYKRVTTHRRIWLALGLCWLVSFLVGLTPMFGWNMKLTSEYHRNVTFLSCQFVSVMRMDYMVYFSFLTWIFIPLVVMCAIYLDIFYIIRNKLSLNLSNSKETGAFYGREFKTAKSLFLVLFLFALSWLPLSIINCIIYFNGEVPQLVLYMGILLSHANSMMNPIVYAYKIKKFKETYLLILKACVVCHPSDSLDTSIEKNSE

hA2b receptor [8] = target: T1, hA2b receptor; test: In vitro specificity, flow cytometry MFI at 100 nM IgG on hA2b
[9] = target: T2, Adenosine A2A receptor (human); test: cell binding titration from 100 nM, RL1-H MFI; panel 'Synthetic Library to A2a protein + ZM241385'
Method: as §2

[10] = target: T2, Adenosine A2A receptor (human); test: flow cytometry titration 0.05-100 nM IgG, MFI; grey curve taken as HEK293-A2a cells, black as parent cells
Method: as §1

T2 sequence (P29274 whole entry): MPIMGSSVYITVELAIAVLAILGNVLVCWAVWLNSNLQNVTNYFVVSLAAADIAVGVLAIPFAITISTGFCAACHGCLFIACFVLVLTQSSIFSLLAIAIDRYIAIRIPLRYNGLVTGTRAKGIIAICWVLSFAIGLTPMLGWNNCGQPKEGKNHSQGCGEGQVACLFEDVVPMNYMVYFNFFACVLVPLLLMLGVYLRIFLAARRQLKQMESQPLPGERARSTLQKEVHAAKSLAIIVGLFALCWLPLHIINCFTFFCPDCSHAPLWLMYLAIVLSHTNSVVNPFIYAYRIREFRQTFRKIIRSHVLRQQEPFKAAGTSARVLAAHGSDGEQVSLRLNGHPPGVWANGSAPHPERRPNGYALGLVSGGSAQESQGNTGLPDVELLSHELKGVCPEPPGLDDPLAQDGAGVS

B1: A2A-88 (antibody)
heavy chain variable region: EVQLVESGGGLVKPGGSLRLSCAASGFTFRTYGMHWVRQAPGKGLEWVAVISAEGSNKYYADSVKGRFTISRDNSKNTLYLQMNSLRAEDTAVYYCARDGRGSLPRPKGGFIGALSFHWPFGRWLGGSYGTYDSSEDSGGAFDIWGQGTLVTVSS
light chain variable region: QSVLTQPPSVSAAPGQKVTISCSGISSNIGNNYVSWYQQLPGTAPKLLIYDNNKRASGIPDRFSGSKSGTSATLGITGLQTGDEADYYCGTWDTSLSAGVFGGGTKLTVL
- binding result (hA2b receptor [1]): binds

B2: A2A-9 (antibody, V domains shown)
VH: EVQLQQSGPGLVKPSQSLSLTCSVTGYSITSGYYWNWIRQFPGKKLEWMGYIRYDGSNNYNPSLKNRISITRDTSKNQFFLKLNSVTTDDTATYYCARVHHYYGSSYFDYWGQGTTLTVSS
VL: DIVMTQSQKFMSTSVGDRVSATCKASQNVGSSVAWFQQKPGQSPKALIYSTSYRYSGVPDRFTGSGSGTDFTLTISNVQSEDLAEYFCQQYNSYPLTFGAGTKLEIK
notes: Tested as IgG
- EC50 [2]: 3.83 nM

B3: A2A-83 (antibody, V domains shown)
VH: EVQRVQSGAELVKPGASVKISCKASGYAFSSYWMNWVKQRPGKGLEWIGQIYPGDGDTNYNGKFEGKATLTADKSSSTAYMQLTSLTSDDSAVYYCARGAYWGQGTTLTVSS
VL: B2 VL with V3Q, T5K, A21V, S31T, S32N, F36Y, T51A, E81G
notes: Tested as IgG
- binding result (hA2b receptor [1]): binds

B4: A2A-84 (antibody, V domains shown)
VH: EVQLVESGGGLVKPGGSLRLSCAASGYTFTEYITHWVRQAPGKGLEWVATISGGGSYTNFPDSVKGRFTISRDNAKNTLFLQMTSLRSEDTAMYYCARPNYSGSSPFAYWGQGTLVTVSA
VL: DIVMTQAPAIMSASPGEKVTMTCSASSSVSYMYWYQQKPGSSPRFLIYDTSNLASGVPVRFSGSGSGTSYSLTISSMEAEDAATYYCQQWNSNPLTFSAGTKLEIK
notes: Tested as IgG
- binding result [3]: binds

B5: A2A – 79 (antibody, V domains shown)
VH: QVQLQESGGGVVRPGGSLRLSCAASGFTFDDYGMSWVRQVPGKGLEWVSGITWNGDRSGYADSVKGRFTISRDNAKNSLYLQMNSLRAEDTALYYCVRDGLTGIFDYWGQGTLVTVSS
VL: ELTLTQSPATLSVSPGERATLSCRASQSVSSYLAWYQQKPGQAPRLLIYGASSRATGIPDRFSGSGSGTDFTLTISRLEPEDFAVYYCQQYGNSYTFGQGTKVDIK
notes: panel 'Immune Library to A2a protein + ZM241385'
- binding result [4]: binds

B6: A2A-78 (antibody, V domains shown)
VH: EVQLLESGGGLVQPGGSLRLSCAASGFTFSAYDIYWVRQPTGKGLEWVSAIGTAGDTYYPGSVKGRFIISRESAKNSVYLQMNSLRAGDTAVYYCAVGYNWVFDLWGQGTLVTVSS
VL: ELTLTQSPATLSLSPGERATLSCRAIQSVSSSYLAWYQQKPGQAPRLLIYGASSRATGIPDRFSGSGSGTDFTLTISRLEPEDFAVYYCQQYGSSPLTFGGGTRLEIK
notes: Tested as IgG
- EC50 (read off the curve) [4]: ~5 nM

B7: A2A-77 (antibody, V domains shown)
VH: QVQLQESGPGLVKPSGTLSLTCAVSGGSISSSNWWSWVRQPPGKGLEWIGEIYHSGNTNYNPSLKSRVTMSVDKSKNQFSLNLHSVTAADTAVYYCAREVVSGMIGTIFDYWGQGTLVTVSS
VL: ELVMTQSPSSLSASVGDRVTITCRASQRISSYLNWYQQKPGKAPKLLIYAASSLQSRVPSRFSGSGSGTDFTLTISSLQPEDFATYYCQQSYSTPLTFGGGTKLETK
notes: Tested as IgG
- IC50, T cell activation assay (FIG. 32C) [5]: 5.92 nM
- IC50 (antagonistic cAMP assay, RFU ratio 665/615nm against IgG in nM) [6]: 3.52 nM
- EC50 (read off the curve) [4]: ~5 nM
- EC50 [7]: 5.76 nM

B8: A2A-75 (antibody, V domains shown)
VH: B7 VH
VL: B7 VL with S7F, R28S, R57G, S91A, Y92N, T94F, L96I, G100Q, K103R, T106I
notes: Tested as IgG
- binding result (hA2b receptor [1]): no binding

B9: A2A-81 (antibody, V domains shown)
VH: B7 VH with N57S, M70I, N82K, H84G, M104L, I105Y
VL: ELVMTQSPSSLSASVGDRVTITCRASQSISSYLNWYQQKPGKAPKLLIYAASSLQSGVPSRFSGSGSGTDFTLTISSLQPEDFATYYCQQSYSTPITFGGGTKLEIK
notes: Tested as IgG
- binding result (hA1 receptor): no binding (tested: 100 nM)
- binding result (hA3 receptor): no binding (tested: 100 nM)
- binding result (hA2b receptor [8]): no binding (tested: 100 nM)

B10: A2A-26 (antibody, V domains shown)
VH: EVQLLESGGGLVQPGGSLRLSCAASGFTFSTYAMGWVRQAPGKGLEWVSGISGSAGSTYYADSVKGRFTISRDNSKNTLYLQMNSLRAEDTAVYYCAAARGHWRWRLGRRYDYWGQGTLVTVSS
VL: DIQMTQSPSSLSASVGDRVTITCRASQTISRYLNWYQQKPGKAPKLLIYSASTLQSGVPSRFSGSGSGTDFTLTISSLQPEDFATYYCQQSYSTPHTFGGGTKVEIK
notes: Tested as IgG
- binding result [9]: binds
- binding result (hA2b receptor [1]): binds

B11: A2A-19 (antibody, V domains shown)
VH: B10 VH with L5V, Q13K, T31G, G35N, G50T, A55G, G56A, H102Y, W103K
VL: B10 VL with T28S, R31D, S50T, Q89E, H96W, V104L
notes: Tested as IgG
- binding result (hA2b receptor [1]): binds

B12: A2A-27 (antibody, V domains shown)
VH: B10 VH with L5V, Q13K, T31S, G35A, G50A, A55G, Y60F, H102Y, G108W
VL: B10 VL with T28S, S30G, R31S, S50G, T53N, S91G, T94A, H96R, V104L
notes: Tested as IgG; also called A2A-27 (Alloy)
- binding result [9]: binds
- binding result (hA2b receptor [1]): binds

B13: A2A-35 (antibody, V domains shown)
VH: B10 VH with L5V, Q13K, A33G, G35S, A55G, Y59N, H102K
VL: B10 VL with T28S, S30G, S50A, T53S, Q55H, S93V, H96W
notes: Tested as IgG
- binding result (hA2b receptor [1]): binds

B14: A2A-15 (antibody, V domains shown)
VH: B10 VH with L5V, Q13K, A33G, G35S, A55G, Y59N, H102K
VL: B10 VL with T28S, S30G, S50A, T53S, Q55H, S93V, H96W, V104L
- binding result [10]: no binding (tested: 100 nM)

B15: A2A – 80 (antibody, V domains shown)
VH: QVQLVQSGGGLVKPGGSLRLSCAASGFTISTYDIYWVRQATGKGLEWVSAIGTAGDTYYPGSVKGRFTISRENAKNSLYLQMNSLRAGDTAVYYCASGYNWIFDYWGQGTLVTVSS
VL: ELTLTQSPGTLSLSPGERATLSCRASQSVSSNLAWYQQKPGQAPRLLIYGASTRATGTPARFSGSGSGTEFTLTISSLQSEDFAVYYCQQYGSSPPTFGQGTRLEIK
notes: as for B5
- binding result [4]: binds
